The text below walks through data of IntAct's records for PubMed 31515488.

The labels stand for the following.
B1: Isoform 1 of Protein quaking (Homo sapiens), Q96PU8-1 (parent)
chain: MVGEMETKEKPKPTPDYLMQLMNDKKLMSSLPNFCGIFNHLERLLDEEISRVRKDMYNDTLNGSTEKRSAELPDAVGPIVQLQEKLYVPVKEYPDFNFVGRILGPRGLTAKQLEAETGCKIMVRGKGSMRDKKKEEQNRGKPNWEHLNEDLHVLITVEDAQNRAEIKLKRAVEEVKKLLVPAAEGEDSLKKMQLMELAILNGTYRDANIKSPALAFSLAATAQAAPRIITGPAPVLPPAALRTPTPAGPTIMPLIRQIQTAVMPNGTPHPTAAIVPPGPEAGLIYTPYEYPYTLAPATSILEYPIEPSGVLGAVATKVRRHDMRVHPYQRIVTADRAATGN
B2: Zinc finger and BTB domain-containing protein 43 (Homo sapiens), O43298 (parent)
chain: MEPGTNSFRVEFPDFSSTILQKLNQQRQQGQLCDVSIVVQGHIFRAHKAVLAASSPYFCDQVLLKNSRRIVLPDVMNPRVFENILLSSYTGRLVMPAPEIVSYLTAASFLQMWHVVDKCTEVLEGNPTVLCQKLNHGSDHQSPSSSSYNGLVESFELGSGGHTDFPKAQELRDGENEEESTKDELSSQLTEHEYLPSNSSTEHDRLSTEMASQDGEEGASDSAEFHYTRPMYSKPSIMAHKRWIHVKPERLEQACEGMDVHATYDEHQVTESINTVQTEHTVQPSGVEEDFHIGEKKVEAEFDEQADESNYDEQVDFYGSSMEEFSGERSDGNLIGHRQEAALAAGYSENIEMVTGIKEEASHLGFSATDKLYPCQCGKSFTHKSQRDRHMSMHLGLRPYGCGVCGKKFKMKHHLVGHMKIHTGIKPYECNICAKRFMWRDSFHRHVTSCTKSYEAAKAEQNTTEAN

Variants of B1 are the subject of the first assay. The settings on record: with hnrpk_human HNRNPK.
For the variant MVGEMETKEKPKPTPDYLMQLMNDKKLMSSLPNFCGIFNHLERLLDEEISRVRKDMYNDTLNGSTEKRSAELPDAVGPIVQLQEKLYVPVKEYPDFNFVGRILGPRGLTAKQLEAETGCKIMVRGKGSMRDKKKEEQNRGKPNWEHLNEDLHVLITVEDAQNRAEIKLKRAVEEVKKLLVPAAEGEDSLKKMQLMELAILNGTYRDANIKSPALAFSLAATAQAAPRIITGPAPVLPPAALRTPTPAGPTIMPLIRQIQTAVMPNGTPHPTAAIVPPGPEAGLIYTPYEYPYTLAPATSILEYPIEPSGVLGAVATKVRRHDMRVHPYQRIVTADQAATGN [R336Q], the “effect of a mutation on the interaction” value is “with no effect”.

A further assay covers variants of B1. The settings on record: with fubp3_human FUBP3, Q96I24.
Chain of fubp3_human FUBP3, Q96I24 (Q96I24 whole entry): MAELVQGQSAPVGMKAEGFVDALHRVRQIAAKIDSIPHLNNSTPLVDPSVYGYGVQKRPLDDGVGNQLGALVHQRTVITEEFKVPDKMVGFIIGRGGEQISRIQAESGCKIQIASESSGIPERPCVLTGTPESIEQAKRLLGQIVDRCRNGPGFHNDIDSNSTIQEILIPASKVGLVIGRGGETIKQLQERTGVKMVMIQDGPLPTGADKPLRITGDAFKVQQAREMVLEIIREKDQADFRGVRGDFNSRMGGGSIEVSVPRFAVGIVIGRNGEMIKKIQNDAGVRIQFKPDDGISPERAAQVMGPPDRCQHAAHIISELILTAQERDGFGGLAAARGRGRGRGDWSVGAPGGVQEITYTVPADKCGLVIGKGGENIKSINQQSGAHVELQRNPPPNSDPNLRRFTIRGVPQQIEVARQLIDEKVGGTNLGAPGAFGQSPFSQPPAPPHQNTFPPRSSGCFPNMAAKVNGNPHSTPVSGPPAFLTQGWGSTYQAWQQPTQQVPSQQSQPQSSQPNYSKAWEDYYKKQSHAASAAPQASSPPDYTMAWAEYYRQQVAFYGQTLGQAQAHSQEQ
Turning to MVGEMETKEKPKPTPDYLMQLMNDKKLMSSLPNFCGIFNHLERLLDEEISRVRKDMYNDTLNGSTEKRSAELPDAVGPIVQLQEKLYVPVKEYPDFNFVGRILGPRGLTAKQLEAETGCKIMVRGKGSMRDKKKEEQNRGKPNWEHLNEDLHVLITVEDAQNRAEIKLKRAVEEVKKLLVPAAEGEDSLKKMQLMELAILNGTYRDANIKSPALAFSLAATAQAAPRIITGPAPVLPPAALRTPTPAGPTIMPLIRQIQTAVMPNGTPHPTAAIVPPGPEAGLIYTPYEYPYTLAPATSILEYPIEPSGVLGAVATKVRRHDMRVHPYQRIVTADQAATGN [R336Q], the “effect of a mutation on the interaction” value was “with no effect”.

A further assay covers variants of B1. The note with it: with rbpms_human RBPMS.
Consider MVGEMETKEKPKPTPDYLMQLMNDKKLMSSLPNFCGIFNHLERLLDEEISRVRKDMYNDTLNGSTEKRSAELPDAVGPIVQLQEKLYVPVKEYPDFNFVGRILGPRGLTAKQLEAETGCKIMVRGKGSMRDKKKEEQNRGKPNWEHLNEDLHVLITVEDAQNRAEIKLKRAVEEVKKLLVPAAEGEDSLKKMQLMELAILNGTYRDANIKSPALAFSLAATAQAAPRIITGPAPVLPPAALRTPTPAGPTIMPLIRQIQTAVMPNGTPHPTAAIVPPGPEAGLIYTPYEYPYTLAPATSILEYPIEPSGVLGAVATKVRRHDMRVHPYQRIVTADQAATGN [R336Q], for which the “effect of a mutation on the interaction” value is given as “with no effect”.

The variants in the next assay derive from B2. The note with it: with psmd3_human PSMD3, O43242.
Chain of psmd3_human PSMD3, O43242 (O43242 whole entry): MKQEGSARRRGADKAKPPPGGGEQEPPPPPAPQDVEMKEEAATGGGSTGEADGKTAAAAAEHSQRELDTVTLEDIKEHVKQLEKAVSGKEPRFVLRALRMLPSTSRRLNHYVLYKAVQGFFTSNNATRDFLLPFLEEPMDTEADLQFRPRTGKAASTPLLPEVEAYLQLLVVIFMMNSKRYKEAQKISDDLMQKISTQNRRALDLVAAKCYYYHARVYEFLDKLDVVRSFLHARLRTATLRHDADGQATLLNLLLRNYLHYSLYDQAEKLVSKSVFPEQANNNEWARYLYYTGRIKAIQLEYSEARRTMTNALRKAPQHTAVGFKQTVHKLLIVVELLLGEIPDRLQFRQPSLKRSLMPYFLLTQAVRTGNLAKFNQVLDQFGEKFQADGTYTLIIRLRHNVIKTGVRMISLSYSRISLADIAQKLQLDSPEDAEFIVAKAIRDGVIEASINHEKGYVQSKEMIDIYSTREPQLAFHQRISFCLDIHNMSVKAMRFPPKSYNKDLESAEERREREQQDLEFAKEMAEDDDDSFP
Turning to MEPGTNSFRVEFPDFSSTILQKLNQQRQQGQLCDVSIVVQGHIFRAHKAVLAASSPYFCDQVLLKNSRRIVLPDVMNPRVFENILLSSYTGRLVMPAPEIVSYLTAASFLQMWHVVDKCTEVLEGNPTVLCQKLNHGSDHQSPSSSSYNGVVESFELGSGGHTDFPKAQELRDGENEEESTKDELSSQLTEHEYLPSNSSTEHDRLSTEMASQDGEEGASDSAEFHYTRPMYSKPSIMAHKRWIHVKPERLEQACEGMDVHATYDEHQVTESINTVQTEHTVQPSGVEEDFHIGEKKVEAEFDEQADESNYDEQVDFYGSSMEEFSGERSDGNLIGHRQEAALAAGYSENIEMVTGIKEEASHLGFSATDKLYPCQCGKSFTHKSQRDRHMSMHLGLRPYGCGVCGKKFKMKHHLVGHMKIHTGIKPYECNICAKRFMWRDSFHRHVTSCTKSYEAAKAEQNTTEAN [L151V], the “effect of a mutation on the interaction” value is on record as “disrupting interaction strength”.

Another assay covers variants of B2. The settings on record: with traf2_human TRAF2, Q12933.
Chain of traf2_human TRAF2, Q12933 (Q12933 whole entry): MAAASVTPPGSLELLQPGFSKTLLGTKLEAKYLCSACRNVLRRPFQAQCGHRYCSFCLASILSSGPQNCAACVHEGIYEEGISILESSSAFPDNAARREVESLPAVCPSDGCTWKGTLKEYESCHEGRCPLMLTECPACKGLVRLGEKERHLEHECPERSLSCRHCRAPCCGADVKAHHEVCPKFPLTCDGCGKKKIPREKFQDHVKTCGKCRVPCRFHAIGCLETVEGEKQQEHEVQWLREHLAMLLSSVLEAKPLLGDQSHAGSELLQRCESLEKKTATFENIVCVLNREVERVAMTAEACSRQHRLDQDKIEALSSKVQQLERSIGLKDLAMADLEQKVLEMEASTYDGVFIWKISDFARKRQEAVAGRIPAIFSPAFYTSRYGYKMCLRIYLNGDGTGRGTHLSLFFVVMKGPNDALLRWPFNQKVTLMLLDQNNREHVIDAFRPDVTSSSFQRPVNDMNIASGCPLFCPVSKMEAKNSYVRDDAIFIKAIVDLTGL
Consider MEPGTNSFRVEFPDFSSTILQKLNQQRQQGQLCDVSIVVQGHIFRAHKAVLAASSPYFCDQVLLKNSRRIVLPDVMNPRVFENILLSSYTGRLVMPAPEIVSYLTAASFLQMWHVVDKCTEVLEGNPTVLCQKLNHGSDHQSPSSSSYNGVVESFELGSGGHTDFPKAQELRDGENEEESTKDELSSQLTEHEYLPSNSSTEHDRLSTEMASQDGEEGASDSAEFHYTRPMYSKPSIMAHKRWIHVKPERLEQACEGMDVHATYDEHQVTESINTVQTEHTVQPSGVEEDFHIGEKKVEAEFDEQADESNYDEQVDFYGSSMEEFSGERSDGNLIGHRQEAALAAGYSENIEMVTGIKEEASHLGFSATDKLYPCQCGKSFTHKSQRDRHMSMHLGLRPYGCGVCGKKFKMKHHLVGHMKIHTGIKPYECNICAKRFMWRDSFHRHVTSCTKSYEAAKAEQNTTEAN [L151V], for which the “effect of a mutation on the interaction” value is “disrupting interaction strength”.

In a further assay the parent is B2. The note with it: with mo4l2_human MORF4L2, Q15014.
Chain of mo4l2_human MORF4L2, Q15014 (Q15014 whole entry): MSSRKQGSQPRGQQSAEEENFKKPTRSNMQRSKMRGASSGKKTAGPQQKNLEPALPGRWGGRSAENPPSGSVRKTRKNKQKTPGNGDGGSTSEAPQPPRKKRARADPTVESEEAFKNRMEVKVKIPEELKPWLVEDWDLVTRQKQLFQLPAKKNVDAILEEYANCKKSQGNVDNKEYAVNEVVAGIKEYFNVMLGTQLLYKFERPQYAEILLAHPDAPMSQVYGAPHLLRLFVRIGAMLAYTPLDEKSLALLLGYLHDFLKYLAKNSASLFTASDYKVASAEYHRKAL
Consider MEPGTNSFRVEFPDFSSTILQKLNQQRQQGQLCDVSIVVQGHIFRAHKAVLAASSPYFCDQVLLKNSRRIVLPDVMNPRVFENILLSSYTGRLVMPAPEIVSYLTAASFLQMWHVVDKCTEVLEGNPTVLCQKLNHGSDHQSPSSSSYNGVVESFELGSGGHTDFPKAQELRDGENEEESTKDELSSQLTEHEYLPSNSSTEHDRLSTEMASQDGEEGASDSAEFHYTRPMYSKPSIMAHKRWIHVKPERLEQACEGMDVHATYDEHQVTESINTVQTEHTVQPSGVEEDFHIGEKKVEAEFDEQADESNYDEQVDFYGSSMEEFSGERSDGNLIGHRQEAALAAGYSENIEMVTGIKEEASHLGFSATDKLYPCQCGKSFTHKSQRDRHMSMHLGLRPYGCGVCGKKFKMKHHLVGHMKIHTGIKPYECNICAKRFMWRDSFHRHVTSCTKSYEAAKAEQNTTEAN [L151V], for which the “effect of a mutation on the interaction” value is listed as “disrupting interaction strength”.

The variants in a further assay derive from B2. The note with it: with arrb1_human ARRB1, P49407.
Chain of arrb1_human ARRB1, P49407 (P49407 whole entry): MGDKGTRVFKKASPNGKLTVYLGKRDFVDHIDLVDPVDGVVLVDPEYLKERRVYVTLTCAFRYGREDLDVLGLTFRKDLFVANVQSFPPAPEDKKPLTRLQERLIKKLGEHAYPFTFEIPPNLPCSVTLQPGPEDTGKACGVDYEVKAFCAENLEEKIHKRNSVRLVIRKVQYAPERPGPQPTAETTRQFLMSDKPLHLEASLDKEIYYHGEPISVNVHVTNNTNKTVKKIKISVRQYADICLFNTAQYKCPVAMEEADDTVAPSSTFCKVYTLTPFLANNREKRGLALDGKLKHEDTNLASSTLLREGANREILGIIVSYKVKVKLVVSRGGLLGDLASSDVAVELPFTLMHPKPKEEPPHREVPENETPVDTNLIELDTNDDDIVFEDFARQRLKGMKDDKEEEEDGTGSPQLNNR
As for MEPGTNSFRVEFPDFSSTILQKLNQQRQQGQLCDVSIVVQGHIFRAHKAVLAASSPYFCDQVLLKNSRRIVLPDVMNPRVFENILLSSYTGRLVMPAPEIVSYLTAASFLQMWHVVDKCTEVLEGNPTVLCQKLNHGSDHQSPSSSSYNGVVESFELGSGGHTDFPKAQELRDGENEEESTKDELSSQLTEHEYLPSNSSTEHDRLSTEMASQDGEEGASDSAEFHYTRPMYSKPSIMAHKRWIHVKPERLEQACEGMDVHATYDEHQVTESINTVQTEHTVQPSGVEEDFHIGEKKVEAEFDEQADESNYDEQVDFYGSSMEEFSGERSDGNLIGHRQEAALAAGYSENIEMVTGIKEEASHLGFSATDKLYPCQCGKSFTHKSQRDRHMSMHLGLRPYGCGVCGKKFKMKHHLVGHMKIHTGIKPYECNICAKRFMWRDSFHRHVTSCTKSYEAAKAEQNTTEAN [L151V], the “effect of a mutation on the interaction” value is given as “disrupting interaction strength”.
